# In paper PMC10243368:
# B1: B13.1.2 (peptide)
# chain 1: CAASEETSGSRLTF
# chain 2: CASSWNLQASYEQYF
# Molecular target: KRAS G12V (whole mutated KRAS gene linked to the LAMP3 signal peptide, as mRNA) peptide on (human)
# Test: B13.1 TILs stimulated with APCs loaded with KRAS G12V mRNA, sorted PI- CD3+ CD137+, 10x single-cell V(D)J sequencing; ex vivo sorted cells
# Settings: chains alpha TRAV23/DV6*01 TRAJ58*01 CDR3:beta TRBV5-6*01 TRBJ2-7*01 CDR3
binder,measurement,value
B1,clonotype frequency among the sorted CD3+ CD137+ cells,32.8%
